{
  "source": "paper PMC2770460",
  "target": "recombinant full-length mammalian Tpr (6xHis-Tpr) (not stated (mammalian)) (UniProt P12270)",
  "sequence (P12270 whole entry)": "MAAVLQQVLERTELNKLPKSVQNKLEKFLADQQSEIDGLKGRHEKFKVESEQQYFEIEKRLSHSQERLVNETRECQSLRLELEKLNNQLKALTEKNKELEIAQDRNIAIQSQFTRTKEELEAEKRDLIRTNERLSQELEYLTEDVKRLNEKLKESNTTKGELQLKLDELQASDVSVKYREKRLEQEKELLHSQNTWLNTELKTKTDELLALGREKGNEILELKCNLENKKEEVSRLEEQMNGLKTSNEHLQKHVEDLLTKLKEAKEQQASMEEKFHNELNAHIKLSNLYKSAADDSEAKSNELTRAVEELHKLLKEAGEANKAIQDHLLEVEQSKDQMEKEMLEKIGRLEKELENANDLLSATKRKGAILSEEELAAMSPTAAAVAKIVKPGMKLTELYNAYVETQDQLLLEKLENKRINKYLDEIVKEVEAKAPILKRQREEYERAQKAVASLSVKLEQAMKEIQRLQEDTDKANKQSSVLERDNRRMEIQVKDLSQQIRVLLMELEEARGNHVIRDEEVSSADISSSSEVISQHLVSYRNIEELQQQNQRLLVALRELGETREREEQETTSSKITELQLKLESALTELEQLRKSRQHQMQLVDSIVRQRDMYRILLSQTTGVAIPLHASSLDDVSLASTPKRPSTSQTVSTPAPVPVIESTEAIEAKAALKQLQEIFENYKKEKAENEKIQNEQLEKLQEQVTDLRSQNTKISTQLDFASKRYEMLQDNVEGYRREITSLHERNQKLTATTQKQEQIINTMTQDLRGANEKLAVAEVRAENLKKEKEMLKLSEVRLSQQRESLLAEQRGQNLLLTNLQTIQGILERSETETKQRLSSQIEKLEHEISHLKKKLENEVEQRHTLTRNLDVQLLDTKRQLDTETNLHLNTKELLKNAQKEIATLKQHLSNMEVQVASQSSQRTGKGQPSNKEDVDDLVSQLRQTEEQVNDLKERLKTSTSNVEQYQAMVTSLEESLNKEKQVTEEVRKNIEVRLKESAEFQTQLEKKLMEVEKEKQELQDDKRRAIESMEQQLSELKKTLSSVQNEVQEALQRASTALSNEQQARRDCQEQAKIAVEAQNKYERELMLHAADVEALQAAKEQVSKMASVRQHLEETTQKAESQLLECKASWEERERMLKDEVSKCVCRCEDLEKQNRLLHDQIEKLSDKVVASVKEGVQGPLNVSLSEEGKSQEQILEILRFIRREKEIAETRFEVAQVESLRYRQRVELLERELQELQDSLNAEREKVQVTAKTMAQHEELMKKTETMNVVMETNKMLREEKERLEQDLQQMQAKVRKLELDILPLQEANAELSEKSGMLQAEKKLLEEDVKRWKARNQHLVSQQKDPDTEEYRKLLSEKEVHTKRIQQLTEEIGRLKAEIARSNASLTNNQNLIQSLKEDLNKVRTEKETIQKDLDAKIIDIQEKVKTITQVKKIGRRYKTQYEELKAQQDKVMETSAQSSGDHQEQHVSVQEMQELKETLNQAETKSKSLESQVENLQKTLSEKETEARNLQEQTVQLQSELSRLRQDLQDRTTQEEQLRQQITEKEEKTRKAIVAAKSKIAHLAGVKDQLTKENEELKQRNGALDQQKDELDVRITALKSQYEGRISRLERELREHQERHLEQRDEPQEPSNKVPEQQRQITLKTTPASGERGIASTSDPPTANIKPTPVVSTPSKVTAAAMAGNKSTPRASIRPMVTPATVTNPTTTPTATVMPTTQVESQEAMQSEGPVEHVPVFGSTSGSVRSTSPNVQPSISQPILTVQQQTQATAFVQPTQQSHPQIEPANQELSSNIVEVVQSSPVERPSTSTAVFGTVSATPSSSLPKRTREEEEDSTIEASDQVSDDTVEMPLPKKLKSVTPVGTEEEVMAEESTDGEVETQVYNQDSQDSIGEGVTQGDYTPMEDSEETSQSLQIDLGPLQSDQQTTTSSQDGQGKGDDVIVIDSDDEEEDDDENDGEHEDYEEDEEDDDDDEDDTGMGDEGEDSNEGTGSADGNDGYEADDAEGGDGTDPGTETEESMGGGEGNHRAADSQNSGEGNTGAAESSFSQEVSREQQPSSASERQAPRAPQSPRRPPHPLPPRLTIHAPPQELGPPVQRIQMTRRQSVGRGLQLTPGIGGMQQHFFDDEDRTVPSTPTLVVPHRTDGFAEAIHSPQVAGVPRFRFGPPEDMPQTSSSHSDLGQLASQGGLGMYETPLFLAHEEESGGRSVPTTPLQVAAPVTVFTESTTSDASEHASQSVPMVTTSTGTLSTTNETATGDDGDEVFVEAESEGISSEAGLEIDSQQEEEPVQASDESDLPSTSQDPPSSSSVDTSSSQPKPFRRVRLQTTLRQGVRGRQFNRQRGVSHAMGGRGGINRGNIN",
  "experiment": "ELISA; solid phase binding assay: Maxisorp microtiter plates coated with 25 ng of Tpr or C-Tpr; increasing concentrations of the soluble protein; bound protein detected with primary antibodies and horseradish peroxidase-conjugated secondary antibodies (TMB); apparent Kd from B = Bmax x Y/(Kd + Y); CRM1, NES and RanGTP at equimolar concentrations",
  "data": [
    {"substance": "His-importin α (from UniProt P52292 1-529) (natural protein)", "values": [
      {"measurement": "Kd", "result": 21.5, "unit": "nM"}
    ]}
  ]
}
